These are literature values, as cited in publication PMC4041429.

Usually Kd stands for the free concentration of one partner at which half of the binding sites on the other are occupied at equilibrium, for simple one-to-one binding.

The target of this data set is β clamp (Escherichia coli) (UniProt P0A988).

With β clamp (from UniProt P0A988), the equilibrium dissociation constant (Kd) is below 50 nM.
